Measured values published in paper PMC11565788 (bioRxiv, 2024).

B1: AAGAB psGD (residues 2-177), tagless, coexpressed and co-purified with AP1σ3-His6 (domain or fragment, human, UniProt Q6PD74 2-177, looked up)
chain: AAGVPCALVTSCSSVFSGDQLVQHILGTEDLIVEVTSNDAVRFYPWTIDNKYYSADINLCVVPNKFLVTAEIAESVQAFVVYFDSTQKSGLDSVSSWLPLAKAWLPEVMILVCDRVSEDGINRQKAQEWCIKHGFELVELSPEELPEEDDDFPESTGVKRIVQALNANVWSNVVMK
B2: AP1σ3-His6 (full-length human AP1S3 with C-terminal His6 tag) (natural protein, UniProt Q96PC3-1 1-154, looked up)
chain: MIHFILLFSRQGKLRLQKWYITLPDKERKKITREIVQIILSRGHRTSSFVDWKELKLVYKRYASLYFCCAIENQDNELLTLEIVHRYVELLDKYFGNVCELDIIFNFEKAYFILDEFIIGGEIQETSKKIAVKAIEDSDMLQEVSTVSQTMGER

How the values were obtained:
[1] = molecular target: B2; test: SEC
[2] = molecular target: B1; test: crystal structure

Row | stoichiometry N [1] | binding result [2] | Binder
1 | 1 |  | B1
2 |  | binds | B2
